Changes are numbered by the printed parent chain. Numbers in names are those of the source.

Assay [1] can be described thus: Retention of perhydrolase on hydroxyapatite (SDS-PAGE band strength). To be noted: relative to enzyme input = 1. Format: binding. The procedure: Perhydrolase enzymes listed in Table 6 were assessed for binding to hydroxyapatite. A dispersion of hydroxyapatite nanoparticles (Aldrich 677418) was made at 0.5% solids in 10 mM phosphate buffer at pH 7.2. Enzyme stock solution was added to the hydroxyapatite dispersion to a final concentration of 10 μM and incubated for 30 min in a microcentrifuge tube with gentle agitation. Each sample was centrifuged for 5 min at 10000 rpm. The supernatant was removed and additional buffer was added. The particles were resuspended and transferred to a new tube. The process was repeated two additional times. Samples of the original input of enzyme, the supernatant removed from the particles with each wash step and the final particles were prepared for SDS-PAGE analysis by combining 60 μL of sample, 20 μL of LDS buffer and 8 μL of reducing agent (Nu-PAGE). Samples were heated at 85° C. for 10 min. 25 μL of each sample was loaded on a 4-12% BisTris gel (Invitrogen) and run at 115 volts for 1.5 h. The gel was removed and stained with a 1:1 dilution of Simply Blue stain (Invitrogen) overnight and destained for 4 h in deionized water. The gel was analyzed and detection of enzyme in each fraction was estimated based on the presence of a band. The results of the analysis are provided in Table 7 with an indication of the relative strength of each band in the gel compared to the enzyme input (input=1) to determine the strength of binding between the hydroxyapatite surface and each enzyme.

Assay [2] is described as follows: Peracetic acid generation from hydroxyapatite bound CE-7 perhydrolase fusions (Example 8). The assay is classed as biochemical. The following applies: hydroxyapatite particles exposed to 10 μM enzyme, washed; 100 mM triacetin, 100 mM H2O2, 30 min, 37° C.; no enzyme 30-118.8. The procedure: (§1) The detection of peracetic acid followed the method described in Pinkernell et. al. (Analyst, 1997, 122, 567) using colorimetric detection of 2,2′-azino-bis(3-ethylbenzothiazoline(-6-sulfonate (ABTS) oxidation by peracetic acid. Following the formation of peracetic acid with the addition of triacetin and hydrogen peroxide, 90 μL of solution was added to 10 μL of 0.1 M H3PO4 in a well plate. 50 μL of 1 M acetic acid, 50 μL of 0.5 g/L ABTS and 50 μL of 0.002 g/L of KI was added. The solution was allowed to develop for 5 min. The absorbance of the solution was measured at 405 nm using a microplate reader. The peracetic acid concentration was calculated based on a standard curve developed simultaneously using peracetic acid reagent solution.
To assess binding of these constructs to hydroxyapatite, 33 mg of hydroxyapatite particles (Macro-prep Ceramic Hydroxyapatite TYPE I, 80 μm size BioRad, Hercules, Calif.), were washed with 10 mM phosphate buffer at pH 7.2. After removing the supernatant, enzyme stock solution was added to the hydroxyapatite dispersion to a final concentration of 10 μM and incubated for 30 min in a microcentrifuge tube with gentle agitation. Each sample was centrifuged for 1 min at 10000 rpm. The supernatant was removed and additional buffer was added. The particles were resuspended and transferred to a new tube. The process was repeated two additional times. The hydroxyapatite bound enzyme activity was measured by adding a 500 μl solution containing 100 mM triacetin, 100 mM H2O2 in 100 mM phosphate buffer, pH 7.2. The solution was incubated for 30 min, at 37° C. An aliquot was removed and mixed with H3PO4 and properly diluted for detection via ABTS oxidation as described in Example 7. The experiments were performed at different day with no enzyme as control for each experiment.

Assay [3] is described as follows: T. maritima C277S/C277T constructs, peracetic acid in solution (Example 11). The assay is classed as biochemical. The following applies: 0.5 μM enzyme, 100 mM triacetin, 100 mM H2O2, pH 7.2, 10 min, 37° C.; no enzyme 114. The protocol:
as §1
Perhydrolase enzymes listed in Table 5 were assessed for enzyme activity in solution as described in Example 7. The enzyme activity in solution was measured by making a 500 μl solution of 0.5 μM of each enzyme in 100 mM triacetin, 100 mM H2O2 and 10 mM phosphate buffer, pH 7.2. The solution was incubated for 10 min, at 37° C. After the reaction was stopped by mixing an aliquot with H3PO4, a 10 μL aliquot was removed for proper dilution, and then detected via ABTS oxidation as described in Example 7.

Assay [4] in a line: T. maritima C277S/C277T constructs, peracetic acid when bound to bovine enamel (Example 11). Format: biochemical. To be noted: bovine enamel exposed to 10 μM enzyme, 4 washes; 100 mM triacetin, 100 mM H2O2, 30 min, 37° C.; no enzyme 570. The protocol: as §1
The perhydrolase enzymes were also assessed for binding to bovine enamel substrates. Enamel substrates were prepared as described in Example 2 and 3. Each enamel block was hydrated in water for overnight at room temperature (˜22° C.). The enamel blocks were then equilibrated with 10 mM potassium phosphate buffer, pH7.2, for 10 min. The enamel substrates were rinsed 3 times the buffer. The enamel wells were filled with 500 μL of 10 μM enzyme solutions which was prepared by diluting in 10 mM phosphate buffer. The samples were incubated for 30 min with slow shaking at 37° C. The non-binding enzyme was removed by washing 4 times with phosphate buffer. Then, each enamel block was embedded inside a putty filled 24-well plate, with only the enamel top surface exposed. The perhydrolase activity from enamel bound enzyme was measured as described in Example 8. 100 μL reaction mixtures (100 mM phosphate buffer, pH7.2 and 100 mM H2O2 and 100 mM triacetin) was added on top of the enamel and incubated for 30 min at 37° C. A 90 μL aliquot was removed for detection via ABTS oxidation as noted in Example 8. Each sample data point represents an average of 3 independent enamel blocks.

B1: EZ-9: C277S-link1-H6, SEQ ID NO: 430 (protein)
chain: MAFFDLPLEELKKYRPERYEEKDFDEFWEETLAESEKFPLDPVFERMESHLKTVEAYDVTFSGYRGQRIKGWLLVPKLEEEKLPCVVQYIGYNGGRGFPHDWLFWPSMGYICFVMDTRGQGSGWLKGDTPDYPEGPVDPQYPGFMTRGILDPRTYYYRRVFTDAVRAVEAAASFPQVDQERIVIAGGSQGGGIALAVSALSKKAKALLCDVPFLCHFRRAVQLVDTHPYAEITNFLKTHRDKEEIVFRTLSYFDGVNFAARAKIPALFSVGLMDNISPPSTVFAAYNYYAGPKEIRIYPYNNHEGGGSFQAVEQVKFLKKLFEKGGPGSGGAGSPGSAGGPGSHHHHHH
With B1, the “Unbound (relative band strength)” value in assay [1] (10 μM enzyme, 0.5% hydroxyapatite, pH 7.2) is listed as 0.9. Besides, in assay [1] (enzyme retained on particles after washes), the “HAP Particles (relative band strength)” value is recorded as 0.05. Moreover, in assay [1], the “Wash1 (relative band strength)” value was found to be 0.01 and the “Wash2 (relative band strength)” value was found to be 0.00. In addition, in assay [2], the “Peracetic acid (ppm)” value is 1885.1 ppm. Also, the “Peracetic acid (ppm) In Solution” value in assay [3] worked out at 5499 ppm. In addition, in assay [4], the “Peracetic acid (ppm) On Enamel” value amounted to 612 ppm.

B2: EZ-15: C277T-link1-H6, SEQ ID NO: 439 (protein)
chain: B1 chain with S277T
As for B2, in assay [3], the “Peracetic acid (ppm) In Solution” value turned out to be 5921 ppm. Also, in assay [4], the “Peracetic acid (ppm) On Enamel” value was 631 ppm.

B3: EZ-16: C277T-link1-HC263-H6, SEQ ID NO: 440 (protein)
chain: MAFFDLPLEELKKYRPERYEEKDFDEFWEETLAESEKFPLDPVFERMESHLKTVEAYDVTFSGYRGQRIKGWLLVPKLEEEKLPCVVQYIGYNGGRGFPHDWLFWPSMGYICFVMDTRGQGSGWLKGDTPDYPEGPVDPQYPGFMTRGILDPRTYYYRRVFTDAVRAVEAAASFPQVDQERIVIAGGSQGGGIALAVSALSKKAKALLCDVPFLCHFRRAVQLVDTHPYAEITNFLKTHRDKEEIVFRTLSYFDGVNFAARAKIPALFSVGLMDNITPPSTVFAAYNYYAGPKEIRIYPYNNHEGGGSFQAVEQVKFLKKLFEKGGPGSGGAGSPGSAGGPGSPSAQSQLPDKHSGLHERAPQRYGPEPEPEPEPIPEPPKEAPVVIEKPKPKPKPKPKPPAHDHKNQKETHQRHAAGSGGGGSPHHHHHH
As for B3, the “Peracetic acid (ppm) In Solution” value in assay [3] is given as 6496 ppm. Further, the “Peracetic acid (ppm) On Enamel” value in assay [4] was 1832 ppm.

B4: EZ-12: T. maritima C277T variant, untargeted, SEQ ID NO: 437 (protein)
chain: MAFFDLPLEELKKYRPERYEEKDFDEFWEETLAESEKFPLDPVFERMESHLKTVEAYDVTFSGYRGQRIKGWLLVPKLEEEKLPCVVQYIGYNGGRGFPHDWLFWPSMGYICFVMDTRGQGSGWLKGDTPDYPEGPVDPQYPGFMTRGILDPRTYYYRRVFTDAVRAVEAAASFPQVDQERIVIAGGSQGGGIALAVSALSKKAKALLCDVPFLCHFRRAVQLVDTHPYAEITNFLKTHRDKEEIVFRTLSYFDGVNFAARAKIPALFSVGLMDNITPPSTVFAAYNYYAGPKEIRIYPYNNHEGGGSFQAVEQVKFLKKLFEKG
Regarding B4, in assay [3], the “Peracetic acid (ppm) In Solution” value is 4918 ppm. For the same molecule, in assay [4], the “Peracetic acid (ppm) On Enamel” value is reported as 612 ppm.

B5: EZ-17: C277T-link2-H6, SEQ ID NO: 441 (protein)
chain: MAFFDLPLEELKKYRPERYEEKDFDEFWEETLAESEKFPLDPVFERMESHLKTVEAYDVTFSGYRGQRIKGWLLVPKLEEEKLPCVVQYIGYNGGRGFPHDWLFWPSMGYICFVMDTRGQGSGWLKGDTPDYPEGPVDPQYPGFMTRGILDPRTYYYRRVFTDAVRAVEAAASFPQVDQERIVIAGGSQGGGIALAVSALSKKAKALLCDVPFLCHFRRAVQLVDTHPYAEITNFLKTHRDKEEIVFRTLSYFDGVNFAARAKIPALFSVGLMDNITPPSTVFAAYNYYAGPKEIRIYPYNNHEGGGSFQAVEQVKFLKKLFEKGGSHHHHHH
With B5, the “Peracetic acid (ppm) In Solution” value in assay [3] was 5360 ppm. Further, the “Peracetic acid (ppm) On Enamel” value in assay [4] stood at 616 ppm.

B6: EZ-14: C277T-link1-DenP308-H6, SEQ ID NO: 438 (protein)
chain: MAFFDLPLEELKKYRPERYEEKDFDEFWEETLAESEKFPLDPVFERMESHLKTVEAYDVTFSGYRGQRIKGWLLVPKLEEEKLPCVVQYIGYNGGRGFPHDWLFWPSMGYICFVMDTRGQGSGWLKGDTPDYPEGPVDPQYPGFMTRGILDPRTYYYRRVFTDAVRAVEAAASFPQVDQERIVIAGGSQGGGIALAVSALSKKAKALLCDVPFLCHFRRAVQLVDTHPYAEITNFLKTHRDKEEIVFRTLSYFDGVNFAARAKIPALFSVGLMDNITPPSTVFAAYNYYAGPKEIRIYPYNNHEGGGSFQAVEQVKFLKKLFEKGGPGSGGAGSPGSAGGPGSTKPPRTPTANTSRPHHNFGSGGGGSPHHHHHH
As to B6, the “Peracetic acid (ppm) In Solution” value in assay [3] is listed as 4689 ppm. The “Peracetic acid (ppm) On Enamel” value in assay [4] came to 1418 ppm.

B7: EZ-18: C277T-link1-(GK)5-H6, SEQ ID NO: 442 (protein)
chain: MAFFDLPLEELKKYRPERYEEKDFDEFWEETLAESEKFPLDPVFERMESHLKTVEAYDVTFSGYRGQRIKGWLLVPKLEEEKLPCVVQYIGYNGGRGFPHDWLFWPSMGYICFVMDTRGQGSGWLKGDTPDYPEGPVDPQYPGFMTRGILDPRTYYYRRVFTDAVRAVEAAASFPQVDQERIVIAGGSQGGGIALAVSALSKKAKALLCDVPFLCHFRRAVQLVDTHPYAEITNFLKTHRDKEEIVFRTLSYFDGVNFAARAKIPALFSVGLMDNITPPSTVFAAYNYYAGPKEIRIYPYNNHEGGGSFQAVEQVKFLKKLFEKGGPGSGGAGSPGSAGGPGSGKGKGKGKGKHHHHHH
Turning to B7, the “Peracetic acid (ppm) In Solution” value in assay [3] is on record as 5537 ppm. Further, in assay [4], the “Peracetic acid (ppm) On Enamel” value came to 1158 ppm.
